Data set [1] addresses T1, SBV-N nucleocapsid protein (Schmallenberg virus, UniProt H2AM13 1-233).
T1 sequence: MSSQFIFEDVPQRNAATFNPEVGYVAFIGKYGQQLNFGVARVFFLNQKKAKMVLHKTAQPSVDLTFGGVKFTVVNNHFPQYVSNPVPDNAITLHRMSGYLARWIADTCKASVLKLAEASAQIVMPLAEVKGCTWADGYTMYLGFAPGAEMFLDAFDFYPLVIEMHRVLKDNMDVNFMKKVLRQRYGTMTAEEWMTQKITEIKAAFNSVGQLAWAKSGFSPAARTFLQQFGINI
Kind of data set: native nanoESI-MS; N:RNA 4:1 and 5:1 (equal major), 6:1, 8:1; 50 mM ammonium acetate, pH 6.8 (stated for RNA-free BUNV-N); 10 uM final N protein (monomer basis); temperature not given. Conditions: protein: recombinant; tags: His6-SUMO, removed; chain copies: 4.

Data set [2] deals with T2, BUNV-N nucleocapsid protein (Bunyamwera virus, UniProt P16495 1-233). Description: native nanoESI-MS; N:RNA 6:1, low population; 50 mM ammonium acetate, pH 6.8 (stated for RNA-free BUNV-N); 10 uM final N protein (monomer basis); temperature not given. As to conditions: protein: recombinant; tags: His6-SUMO, removed.
Data set [3] concerns the molecule itself. Description: native MS; nano-ESI-MS of RNA-free N protein (10 μM monomer) incubated with synthetic 12-mer RNA; 2:1 N/RNA molar ratio for BUNV-N.
Data set [4] concerns the molecule itself. Kind of data set: native MS; nano-ESI-MS of RNA-free N protein (10 μM monomer) incubated with synthetic 24-mer RNA.
Data set [5] concerns the molecule itself. Kind of data set: native MS; nano-ESI-MS of BUNV-N bound to endogenous E. coli RNA (as purified; traces also left after the RNA-removal step); ammonium acetate buffer pH 6.8.
Data set [6] deals with the molecule itself. Kind of data set: native MS; nano-ESI-MS of RNA-free N protein (10 μM monomer) incubated with synthetic 60-mer RNA.
Data set [7] deals with the molecule itself. Kind of data set: native MS; nano-ESI-MS of RNA-free N protein (10 μM monomer) incubated with synthetic 48-mer RNA.
For data set [8], the target named is T2, BUNV-N nucleocapsid protein. Description: native nanoESI-MS, CID MS/MS; N:RNA 3:1, 4:2 (major), 5:2, 6:3; 4:2 also in mixture with SBV-N; 50 mM ammonium acetate, pH 6.8 (stated for RNA-free BUNV-N); 10 uM final N protein (monomer basis); temperature not given. Conditions: protein: recombinant; tags: His6-SUMO, removed.
The target in data set [9] is T1, SBV-N nucleocapsid protein. Kind of data set: native nanoESI-MS, CID MS/MS; N:RNA 4:2, 5:2; 4:2 also in mixture with BUNV-N; 50 mM ammonium acetate, pH 6.8 (stated for RNA-free BUNV-N); 10 uM final N protein (monomer basis); temperature not given. As to conditions: protein: recombinant; tags: His6-SUMO, removed; chain copies: 4.
For data set [10], the target named is T2, BUNV-N nucleocapsid protein. Description: native nanoESI-MS; N:RNA 5:1; 50 mM ammonium acetate, pH 6.8 (stated for RNA-free BUNV-N); 10 uM final N protein (monomer basis); temperature not given. Conditions: protein: recombinant; tags: His6-SUMO, removed.
Data set [11] addresses T1, SBV-N nucleocapsid protein. Description: native nanoESI-MS; N:RNA 3:1, 4:1 (major), 4:2, 5:2; 50 mM ammonium acetate, pH 6.8 (stated for RNA-free BUNV-N); 10 uM final N protein (monomer basis); temperature not given. Conditions: protein: recombinant; tags: His6-SUMO, removed; chain copies: 4.
Data set [12] deals with T1, SBV-N nucleocapsid protein. Kind of data set: native nanoESI-MS; N:RNA 4:4 (major), 8:8, 10:10, 12:12; 50 mM ammonium acetate, pH 6.8 (stated for RNA-free BUNV-N); 10 uM final N protein (monomer basis); temperature not given. As to conditions: protein: recombinant; tags: His6-SUMO, removed; chain copies: 4.
The target in data set [13] is T2, BUNV-N nucleocapsid protein. Description: native nanoESI-MS; N:RNA 3:2, 3:3, 4:4 (3:3 and 4:4 major); mixed at 2:1; 50 mM ammonium acetate, pH 6.8 (stated for RNA-free BUNV-N); 10 uM final N protein (monomer basis); temperature not given. As to conditions: protein: recombinant; tags: His6-SUMO, removed.

“And” between values parts separate entries of the source, which are not always exact repeats. Identical values can stand only once.

B1: 60-mer RNA (ssRNA)
RNA: AGUAGUGUACUCCACACUACAAACUUGCUAUUGUUGAAAAUCGCUGUGCUAUUAAAUCCA
Turning to B1, the binding result in data set [1] and in [2] was “binds” each time.

B2: Bunyamwera virus nucleocapsid (N) protein (natural protein)
chain: MIELEFHDVAANTSSTFDPEVAYANFKRVHTTGLSYDHIRIFYIKGREIKTSLAKRSEWEVTLNLGGWKITVYNTNFPGNRNNPVPDDGLTLHRLSGFLARYLLEKMLKVSEPEKLIIKSKIINPLAEKNGITWNDGEEVYLSFFPGSEMFLGTFRFYPLAIGIYKVQRKEMEPKYLEKTMRQRYMGLEAATWTVSKLTEVQSALTVVSSLGWKKTNVSAAARDFLAKFGINM
notes: Nucleocapsid (N) protein of Bunyamwera virus (BUNV); As purified it carries E. coli RNA (tetramer with about 44 nt); the RNA-free form is obtained by high salt treatment; also called BUNV-N; BUNVN; source: tag removed; endogenous RNA removed with high ionic strength buffers where stated
As to B2, the “stoichiometry N” value was 3 in data set [3]; 5 and 6 in [4]; 4 in data set [5].

B3: Schmallenberg virus nucleocapsid (N) protein (natural protein)
chain: T1 sequence
notes: Nucleocapsid (N) protein of Schmallenberg virus (SBV); measured monomer mass 26 269 Da; also called SBV-N; SBVN; source: tag removed; high salt-treated
B3: the “stoichiometry N” value in data set [3] is 4 and 8 and 10 and 12; in data set [4] it was 5; in data set [6], 6; in data set [7], 3.
Turning to AGUAGUGUACUCCACACUACAAAC (ssRNA) [24-mer RNA], the binding result in data set [8] and in [9] was “binds” each time.
With AGUAGUGUACUCCACACUACAAACUUGCUAUUGUUGAAAAUCGCUGUG (ssRNA) [48-mer RNA], the binding result in data set [10] and in data set [11] was “binds” each time.
Consider AGUAGUGUACUC (ssRNA) [12-mer RNA], for which the binding result in [12] and in data set [13] was “binds” throughout.

One may read the stoichiometry N as the number of molecules, sites or subunits per partner or assembly.

Source of the values: publication PMC4377080, “Probing Bunyavirus N protein oligomerisation using mass spectrometry” (Rapid Communications in Mass Spectrometry, 2014).
